Broadly, the stoichiometry N is the number of molecules, sites or subunits per partner or assembly.

The record followed here is PMC2174365 (The Journal of Cell Biology, 2000).

The target of series [1] is microtubules (taxol-stabilized; polymer of alpha- and beta-tubulin). Description: cell-based or functional assay.
The series “cross-linking” concerns the molecule itself. Put plainly: cross-linking.

B1: Cys344 Cys-light K560-GFP (neck coiled-coil mutant Tyr344Cys) (domain or fragment, human, UniProt P33176 1-560, looked up)
chain: MADLAESNIKVMCRFRPLNESEVNRGDKYIAKFQGEDTVVIASKPYAFDRVFQSSTSQEQVYNDAAKKIVKDVLEGYNGTIFAYGQTSSGKTHTMEGKLHDPEGMGIIPRIVQDIFNYIYSMDENLEFHIKVSYFEIYLDKIRDLLDVSKTNLSVHEDKNRVPYVKGATERFVSSPDEVMDTIDEGKSNRHVAVTNMNEHSSRSHSIFLINVKQENTQTEQKLSGKLYLVDLAGSEKVSKTGAEGAVLDEAKNINKSLSALGNVISALAEGSTYVPYRDSKMTRILQDSLGGNARTTIVICCSPSSYNESETKSTLLFGQRAKTIKNTVSVNVELTAEQWKKKCEKEKEKNKILRNTIQWLENELNRWRNGETVPIDEQFDKEKANLEAFTVDKDITLTNDKPATAIGVIGNFTDAERRKAEEEIAKLYKQLDDKDEEINQQSQLVEKLKTQMLDQEELLASTRRDQDNMQAELNRLQAENDASKEEVKEVLQALEELAVNYDQKSQEVEDKTKEYELLSDELNQKSATLASIDAELQKLKEMTNHQKKRAAEMMASLLK
Take B1: in series [1], the “Km(MT) of the microtubule-stimulated ATPase, with 200 μM DTNB” value (shortened to “Km(MT) … with 200 μM DTNB”) was 1.24 μM tubulin and the “Km(MT) of the microtubule-stimulated ATPase, without DTNB” value (shortened to “Km(MT) … without DTNB”) worked out at 0.84 μM tubulin. The “stoichiometry N” value in “cross-linking” amounted to 2.

B2: Cys337/Cys344 Cys-light K560-GFP (neck coiled-coil double mutant Ala337Cys/Tyr344Cys) (domain or fragment, human, UniProt P33176 1-560, looked up)
chain: MADLAESNIKVMCRFRPLNESEVNRGDKYIAKFQGEDTVVIASKPYAFDRVFQSSTSQEQVYNDAAKKIVKDVLEGYNGTIFAYGQTSSGKTHTMEGKLHDPEGMGIIPRIVQDIFNYIYSMDENLEFHIKVSYFEIYLDKIRDLLDVSKTNLSVHEDKNRVPYVKGATERFVSSPDEVMDTIDEGKSNRHVAVTNMNEHSSRSHSIFLINVKQENTQTEQKLSGKLYLVDLAGSEKVSKTGAEGAVLDEAKNINKSLSALGNVISALAEGSTYVPYRDSKMTRILQDSLGGNARTTIVICCSPSSYNESETKSTLLFGQRAKTIKNTVSVNVELTCEQWKKKCEKEKEKNKILRNTIQWLENELNRWRNGETVPIDEQFDKEKANLEAFTVDKDITLTNDKPATAIGVIGNFTDAERRKAEEEIAKLYKQLDDKDEEINQQSQLVEKLKTQMLDQEELLASTRRDQDNMQAELNRLQAENDASKEEVKEVLQALEELAVNYDQKSQEVEDKTKEYELLSDELNQKSATLASIDAELQKLKEMTNHQKKRAAEMMASLLK
B2: in series [1], the “Km(MT) … with 200 μM DTNB” value amounted to 1.51 μM tubulin and the “Km(MT) … without DTNB” value came out at 1.19 μM tubulin.

B3: Cys337 Cys-light K560-GFP (neck coiled-coil mutant Ala337Cys) (domain or fragment, human, UniProt P33176 1-560, looked up)
chain: MADLAESNIKVMCRFRPLNESEVNRGDKYIAKFQGEDTVVIASKPYAFDRVFQSSTSQEQVYNDAAKKIVKDVLEGYNGTIFAYGQTSSGKTHTMEGKLHDPEGMGIIPRIVQDIFNYIYSMDENLEFHIKVSYFEIYLDKIRDLLDVSKTNLSVHEDKNRVPYVKGATERFVSSPDEVMDTIDEGKSNRHVAVTNMNEHSSRSHSIFLINVKQENTQTEQKLSGKLYLVDLAGSEKVSKTGAEGAVLDEAKNINKSLSALGNVISALAEGSTYVPYRDSKMTRILQDSLGGNARTTIVICCSPSSYNESETKSTLLFGQRAKTIKNTVSVNVELTCEQWKKKYEKEKEKNKILRNTIQWLENELNRWRNGETVPIDEQFDKEKANLEAFTVDKDITLTNDKPATAIGVIGNFTDAERRKAEEEIAKLYKQLDDKDEEINQQSQLVEKLKTQMLDQEELLASTRRDQDNMQAELNRLQAENDASKEEVKEVLQALEELAVNYDQKSQEVEDKTKEYELLSDELNQKSATLASIDAELQKLKEMTNHQKKRAAEMMASLLK
As to B3, in series [1], the “Km(MT) … with 200 μM DTNB” value is 1.59 μM tubulin and the “Km(MT) … without DTNB” value is 1.2 μM tubulin. For the same molecule, in “cross-linking”, the “stoichiometry N” value worked out at 2.
